Patent US20150104459A1

B1: TCN-528 (5087_P17) (antibody, V domains shown)
VH: QVQLVQSGSEVKKPGASVKVSCKASGYTFTNYDINWIRQAPGQGLEWMGWINPNSGTTGSAQRFQGRVTITVDTSITTVYMELSSLRSDDTAIYYCARGRELLRLQHFLTDSQSERRDCFDPWGQGTLVTVSS
VL: DIQMTQSPSSLSASVGDRVTITCRANQDIGIYLNWYQQNPGKVPKLLLHGASSLQGGVPSRFSASGSGTDFTLTIHSLQPEDLATYYCQQSRRLPYTFGQGTRVELK
B2: TCN-550 (5096_F06) (antibody, V domains shown)
VH: QVQLQESGPGLVKPSETLSLTCTVSGASINSHYWSWIRQPPGKGLEWIGYVYYSGSTTYNPSLKSRVTLSVDTSKNQFSLNLSSVTAADTAFYYCARHPYDVLTGSGDWFDPWGQGTLVTVSS
VL: SYVLTQAPSVSVAPGQTARITCGGNAIGSKKVHWYQHKAGQAPVLVVYDDTDRPSGIPERFSGSNSWSTATLTINRVEAGDEADYYCQVWDFTIDHVVFGGGTKLTVL
B3: TCN-527 (5086_C06) (antibody, V domains shown)
VH: QVQLQESGPGLVKPSETLSLNCAVSGGSISNYYWSWIRQPPGKGLEWIGYISYNGRPKYNPSLTSRVTISVDTSKDQFSLELRSVTAADTALYYCARETRFGELLSPYDAFEIWGQGTMVTVSS
VL: DIQMTQSPSSLSASVGDRVTMTCRASQNIRSYLNWYQQRPGTAPKLLIYAASTLHSGVPSRFSGGGSGTDFTLTINNLQPEDFASYYCQQSYDNPQTFGQGTKVEIK
B4: TCN-546 (5089_L08) (antibody, V domains shown)
VH: QVQLQQWGAGLLKPSETLSLTCGVYGGSLSDYYWSWIRQPPGKGLEWIGEINHSGGTNYNPSLKRRVTISVDTSKKQFSLKMNSVTAADTAVYYCARGTDPDTEVYCRAGNCAAFDFWGQGTLVTVSS
VL: EIVLTQSPGTLSLSPGERATLSCRASHFVIGRAVAWYQQKPGQAPRLLIYGASSRATGIPDRFSGSGSGTDFTLTISRLETEDFAVFYCQHYGSSPRYAFGQGTKLEIK
B5: TCN-553 (5261_C18) (antibody, V domains shown)
VH: QVQVVQSGTEVKKPGSSVKVSCQTSGGRFMSYAITWVRQAPGQGLEWMGGIVPVFGTANYAQKFQGRVTITTDDSTRTAYMELSSLRSEDTAVYYCGFRYGSGYGFDSWGQGTLVTVSS
VL: EIVLTQSPGTLSLSPGERATLSCRASQSVSSSYLAWYQKKPGQAPRLLIYGASTRATGIPDRFTGSGSGTDFTLSISRLEPEDFAVYYCQHFGTSVFTFGGGTKVEIK
B6: TCN-543 (5081_G23) (antibody, V domains shown)
VH: QVHLVQSGAEVRKPGDSVKVSCKTSGYTFSTYPVAWVRQVPGQGLEWMGWISTYNGNTNFAQNFQGRVTLTTDTTTNTAYMEVRSLKFDDTAVYYCARVEGSYRDFWNNQNRFDPWGQGTLVTVSS
VL: SYVLTQPPSVSVAPGQTARISCGGSNIGGKSVHWYQQKPGQAPVLVVYDDSGRPSGIPERFSGSNSGDTATLTISRVEAGDEADYFCQVWDNFGGVFGTGTKVTVL
B7: TCN-521 (3280_D18) (antibody, V domains shown)
VH: EVQLVQSGGGLVQPGGSLRLACVVSGFTVTSNYITWVRQAPGKGLEWVSVIYSHGRAYYSASVNGRFTISRHTSKNTVYLEMNSLRPEDTAVYYCAGGGLVGGYDEYFFDYWGQGTLATVSS
VL: ETVLTQSPGTLSLTPGERATLSCRVGQSVSGSHLAWYQQKPGQAPRLLIYGASSRATGIPDRFGGSVSGTDFTLTISRLEPEDSAVYYCQQYGDSRYTFGQGTKLEIK
B8: TCN-558 (5248_H10b) (antibody, V domains shown)
VH: QVQLVQSGSEVKKPGTSVKVSCTASGSVFTNYGISWVRQAPGQGLEWMGGIIPLFGAAKYAQKFQGRVTITADESTKTVYMELSRLTSKDTAIYFCAKAPRVYEYYFDQWGQGTPVTVSS
VL: EIVMTQFPATLSVSPGERVTLSCRASQSVSNNLAWYQQKPGQPPRLLIYDASTRATGVPAKFSGTGSGTEFTLSISSLQSEDFAVYYCQQYHNWPPSYSFGLGTKLEIK

Each binder was assayed against recombinant soluble homotrimeric HA of A/Anhui/1/05 (H5N1) (Influenza A virus A/Anhui/1/2005 (H5N1)) (assay: HA microarray, BCC supernatant). Conditions: remark: other sources report otherwise.
Binder B1 has a Trimeric HA Binding RLU of 49800 RLU.
Binder B2 has a Trimeric HA Binding RLU of 1210 RLU.
With B3 the Trimeric HA Binding RLU was 21400 RLU.
With B4 the Trimeric HA Binding RLU was 2040 RLU.
B5 was tested, and the Trimeric HA Binding RLU was 12600 RLU.

The binders below were run against recombinant soluble homotrimeric HA of A/California/4/09 (H1N1) (Influenza A virus A/California/04/2009 (H1N1)) (assay: HA microarray, BCC supernatant). Conditions: remark: other sources report otherwise.
Binder B1 has a Trimeric HA Binding RLU of 48800 RLU.
B6 showed a Trimeric HA Binding RLU of 13100 RLU.
B3 was tested, and the Trimeric HA Binding RLU was 28000 RLU.
Work on B4 yielded a Trimeric HA Binding RLU of 350 RLU.
Binder B5 has a Trimeric HA Binding RLU of 20300 RLU.

Each binder was assayed against recombinant soluble homotrimeric HA of A/Egypt/3300-NAMRU3/08 (H5N1) (Influenza A virus A/Egypt/3300-NAMRU3/2008 (H5N1)) (assay: HA microarray, BCC supernatant). Conditions: remark: other sources report otherwise.
B7 was tested, and the Trimeric HA Binding RLU was 47900 RLU.
With B5 the Trimeric HA Binding RLU was 18800 RLU.

Each binder was assayed against recombinant soluble homotrimeric HA of A/Hong Kong/2108/03 (H9N2) (Influenza A virus A/Hong Kong/2108/2003 (H9N2)) (assay: HA microarray, BCC supernatant). Conditions: remark: other sources report otherwise.
Work on B1 yielded a Trimeric HA Binding RLU of 42000 RLU.
Binder B2 has a Trimeric HA Binding RLU of 2280 RLU.
With B3 the Trimeric HA Binding RLU was 16000 RLU.
Binder B7 has a Trimeric HA Binding RLU of 93 RLU.
B4 showed a Trimeric HA Binding RLU of 13000 RLU.

What follows are binders tested against recombinant soluble homotrimeric HA of A/Indonesia/5/05 (H5N1) (Influenza A virus A/Indonesia/5/2005 (H5N1)) (assay: HA microarray, BCC supernatant). Conditions: remark: other sources report otherwise.
With B1 the Trimeric HA Binding RLU was 42800 RLU.
B2 was tested, and the Trimeric HA Binding RLU was 9100 RLU.
B3 was tested, and the Trimeric HA Binding RLU was 23800 RLU.
B7 was tested, and the Trimeric HA Binding RLU was 31500 RLU.
B4 was tested, and the Trimeric HA Binding RLU was 18400 RLU.
In the case of B5, the Trimeric HA Binding RLU is reported as 24400 RLU.

What follows are binders tested against recombinant soluble homotrimeric HA of A/Japan/305/57 (H2N2) (Influenza A virus A/Japan/305/1957 (H2N2)) (assay: HA microarray, BCC supernatant). Conditions: remark: other sources report otherwise.
B1 showed a Trimeric HA Binding RLU of 46400 RLU.
For B2, the Trimeric HA Binding RLU was 201 RLU.
Binder B3 has a Trimeric HA Binding RLU of 19300 RLU.
B7 was tested, and the Trimeric HA Binding RLU was 6730 RLU.
B4 showed a Trimeric HA Binding RLU of 520 RLU.
B5 showed a Trimeric HA Binding RLU of 25500 RLU.

Each binder was assayed against recombinant soluble homotrimeric HA of A/Netherlands/219/03 (H7N7) (Influenza A virus A/Netherlands/219/03 (H7N7)) (assay: HA microarray, BCC supernatant). Conditions: remark: other sources report otherwise.
B1 showed a Trimeric HA Binding RLU of 49300 RLU.
With B6 the Trimeric HA Binding RLU was 661 RLU.
For B3, the Trimeric HA Binding RLU was 8890 RLU.

The binders below were run against recombinant soluble homotrimeric HA of A/Solomon Islands/3/06 (H1N1) (Influenza A virus A/Solomon Islands/3/2006 (H1N1)) (assay: HA microarray, BCC supernatant). Conditions: remark: other sources report otherwise.
B1 showed a Trimeric HA Binding RLU of 44800 RLU.
For B2, the Trimeric HA Binding RLU was 204 RLU.
For B6, the Trimeric HA Binding RLU was 511 RLU.
For B3, the Trimeric HA Binding RLU was 16500 RLU.
B7 showed a Trimeric HA Binding RLU of 39600 RLU.
For B5, the Trimeric HA Binding RLU was 16300 RLU.

The binders below were run against recombinant soluble homotrimeric HA of A/Vietnam/1203/04 (H5N1) (Influenza A virus A/Vietnam/1203/2004 (H5N1)) (assay: HA microarray, BCC supernatant). Conditions: remark: other sources report otherwise.
B1 was tested, and the Trimeric HA Binding RLU was 45600 RLU.
In the case of B2, the Trimeric HA Binding RLU is reported as 277 RLU.
With B3 the Trimeric HA Binding RLU was 21300 RLU.
Binder B4 has a Trimeric HA Binding RLU of 349 RLU.
B5 gave a Trimeric HA Binding RLU of 6560 RLU.

The binders below were run against recombinant soluble homotrimeric HA of A/Wisconsin/67/05 (H3N2) (Influenza A virus A/Wisconsin/67/2005 (H3N2)) (assay: HA microarray, BCC supernatant). Conditions: remark: other sources report otherwise.
Binder B1 has a Trimeric HA Binding RLU of 48800 RLU.
B2 showed a Trimeric HA Binding RLU of 26300 RLU.
Work on B6 yielded a Trimeric HA Binding RLU of 1360 RLU.
Binder B3 has a Trimeric HA Binding RLU of 5720 RLU.
With B4 the Trimeric HA Binding RLU was 30200 RLU.
B5 gave a Trimeric HA Binding RLU of 20000 RLU.

Each binder was assayed against recombinant soluble homotrimeric HA of A/chicken/Vietnam/NCVD-016/08 (H5N1) (Influenza A virus A/chicken/Vietnam/NCVD-016/2008 (H5N1)) (assay: HA microarray, BCC supernatant). Conditions: remark: other sources report otherwise.
For B1, the Trimeric HA Binding RLU was 38200 RLU.
B2 gave a Trimeric HA Binding RLU of 361 RLU.
B3 showed a Trimeric HA Binding RLU of 27000 RLU.
Work on B7 yielded a Trimeric HA Binding RLU of 32400 RLU.
For B4, the Trimeric HA Binding RLU was 421 RLU.
For B5, the Trimeric HA Binding RLU was 24200 RLU.

Each binder was assayed against recombinant soluble homotrimeric HA of A/duck/Yangzhou/02/2005 (H8N4) (Influenza A virus A/duck/Yangzhou/02/2005 (H8N4)) (assay: HA microarray, BCC supernatant). Conditions: remark: other sources report otherwise.
Binder B1 has a Trimeric HA Binding RLU of 38400 RLU.
Work on B2 yielded a Trimeric HA Binding RLU of 407 RLU.
With B3 the Trimeric HA Binding RLU was 28800 RLU.
Binder B5 has a Trimeric HA Binding RLU of 28000 RLU.

Each binder was assayed against recombinant soluble homotrimeric HA of A/northern shoveler/California/HKWF115/2007 (H6N1) (Influenza A virus A/northern shoveler/California/HKWF115/2007 (H6N1)) (assay: HA microarray, BCC supernatant). Conditions: remark: other sources report otherwise.
B1 was tested, and the Trimeric HA Binding RLU was 46800 RLU.
With B3 the Trimeric HA Binding RLU was 30300 RLU.
For B7, the Trimeric HA Binding RLU was 48000 RLU.
B5 gave a Trimeric HA Binding RLU of 21700 RLU.

What follows are binders tested against recombinant soluble homotrimeric HA of A/swine/Ontario/01911-2/99 (H4N6) (Influenza A virus A/Swine/Ontario/01911-2/99 (H4N6)) (assay: HA microarray, BCC supernatant). Conditions: remark: other sources report otherwise.
Binder B1 has a Trimeric HA Binding RLU of 47500 RLU.
B3 showed a Trimeric HA Binding RLU of 7690 RLU.
For B5, the Trimeric HA Binding RLU was 2580 RLU.

What follows are binders tested against recombinant soluble homotrimeric HA, A/Anhui/1/05 (H5N1) (influenza A virus A/Anhui/1/2005 (H5N1)) (assay: microarray, trimeric HA, transfection supernatant). Conditions: remark: other sources report otherwise.
B4 was tested, and the Trimeric HA Binding RLU was 33300 RLU.
For B5, the Trimeric HA Binding RLU was 8550 RLU.

These binders were tested against recombinant soluble homotrimeric HA, A/Hong Kong/156/97 (H5N1) (influenza A virus A/Hong Kong/156/97 (H5N1)) (assay: microarray, trimeric HA, transfection supernatant). Conditions: remark: other sources report otherwise.
B2 gave a Trimeric HA Binding RLU of 955 RLU.
B6 was tested, and the Trimeric HA Binding RLU was 1430 RLU.
Binder B4 has a Trimeric HA Binding RLU of 1240 RLU.
B5 showed a Trimeric HA Binding RLU of 36300 RLU.

These binders were tested against recombinant soluble homotrimeric HA, A/Netherlands/219/03 (H7N7) (influenza A virus A/Netherlands/219/03 (H7N7)) (assay: microarray, trimeric HA, transfection supernatant). Conditions: remark: other sources report otherwise.
For B6, the Trimeric HA Binding RLU was 12900 RLU.
In the case of B8, the Trimeric HA Binding RLU is reported as 5840 RLU.

The binders below were run against recombinant soluble homotrimeric HA, A/chicken/Vietnam/NCVD-016/08 (H5N1) (influenza A virus A/chicken/Vietnam/NCVD-016/2008 (H5N1)) (assay: microarray, trimeric HA, transfection supernatant). Conditions: remark: other sources report otherwise.
Work on B2 yielded a Trimeric HA Binding RLU of 1800 RLU.
B6 showed a Trimeric HA Binding RLU of 5880 RLU.
B4 was tested, and the Trimeric HA Binding RLU was 2940 RLU.
For B8, the Trimeric HA Binding RLU was 33400 RLU.
In the case of B5, the Trimeric HA Binding RLU is reported as 34700 RLU.

What follows are binders tested against recombinant soluble homotrimeric HA, A/duck/Yangzhou/02/2005 (H8N4) (influenza A virus A/duck/Yangzhou/02/2005 (H8N4)) (assay: microarray, trimeric HA, transfection supernatant). Conditions: remark: other sources report otherwise.
B2 gave a Trimeric HA Binding RLU of 4710 RLU.
B6 was tested, and the Trimeric HA Binding RLU was 13100 RLU.
In the case of B4, the Trimeric HA Binding RLU is reported as 11400 RLU.
In the case of B5, the Trimeric HA Binding RLU is reported as 12500 RLU.

These binders were tested against recombinant soluble homotrimeric HA, A/northern shoveler/California/HKWF115/2007 (H6N1) (influenza A virus A/northern shoveler/California/HKWF115/2007 (H6N1)) (assay: microarray, trimeric HA, transfection supernatant). Conditions: remark: other sources report otherwise.
Binder B2 has a Trimeric HA Binding RLU of 2300 RLU.
For B8, the Trimeric HA Binding RLU was 29400 RLU.
With B5 the Trimeric HA Binding RLU was 32500 RLU.
